According to paper PMC3272482:
Several values for one entry are separate records, joined by “and”; a condition that tells them apart may be missing. Equal values may be shown once. Read-outs that look alike come from different tables or passages of the source.

What was measured:
Assay in all cases: cryo-EM structure
[1] = target: Escherichia coli DegQ, protease deficient S187A mutant (Escherichia coli) (UniProt P39099)
[2] = target: Escherichia coli DegQ, protease deficient S187A mutant (Escherichia coli) (UniProt P39099); remark: listed apart in the source
[3] = target: Escherichia coli DegQ, protease deficient S187A mutant (Escherichia coli) (UniProt P39099); remark: listed apart in the source

stoichiometry N [1]: 24 protomers and 12 protomers
stoichiometry N [2]: 12 protomers
stoichiometry N [3]: 12 protomers
Substance: Escherichia coli DegQ, protease deficient S187A mutant (from UniProt P39099 28-455) (enzyme)
